Kd data for one molecule are collected here from article PMC10823254 (Proceedings of the National Academy of Sciences of the …, 2024).

In the assay the target is T1, PilO-C (H. pylori).
T1 chain: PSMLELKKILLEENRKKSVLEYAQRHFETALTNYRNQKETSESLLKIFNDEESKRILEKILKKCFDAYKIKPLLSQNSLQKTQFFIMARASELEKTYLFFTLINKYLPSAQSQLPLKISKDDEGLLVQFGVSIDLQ
Description: SPR.

B1: PilN-C (domain or fragment)
chain: HNAIKSTQDNASSLTIQERLYRHEISRLQVKTDETLKLIKEAKKRLNYNDDIRDVLQGLLNIVPDSITINSIEIDQQSVVVSGKTPSKEAFYFLFQNKLNPMFDYSRAEFFPLSDGWFNFVSTNFSNSLLIKNPESIK
One may read the Kd as the free concentration of one partner at which half of the binding sites on the other are occupied at equilibrium, for simple one-to-one binding. In turn, B1 gave a Kd of 3.1 ± 1 µM.
